The target of experiment [1] is T1, SARS-CoV-2 N-terminal domain-NTD (residue 1-290) (SARS-CoV-2, Wuhan-Hu-1 (MN908947), UniProt P0DTC2).
T1 construct: source: FreeStyle293F, transfected, purified (Ni-NTA, SEC)
Kind of experiment: BLI. As to conditions: both partners purified.

Experiment [2] has as its target T2, SARS-CoV-2 RBD-SD1-2 (residue 320-681) (SARS-CoV-2, Wuhan-Hu-1 (MN908947), UniProt P0DTC2).
T2 construct: source: FreeStyle293F, transfected, purified (Ni-NTA, SEC)
Nature of the experiment: BLI. Particulars: both partners purified.

In experiment [3] the target is T3, SARS-CoV-2 receptor-binding domain-RBD (residue 320-527) (SARS-CoV-2, Wuhan-Hu-1 (MN908947), UniProt P0DTC2).
T3 construct: source: FreeStyle293F, transfected, purified (Ni-NTA, SEC)
Nature of the experiment: BLI. Particulars: both partners purified.

Experiment [4] addresses T4, SARS-CoV-2 RBD-SD1 (residue 320-591) (SARS-CoV-2, Wuhan-Hu-1 (MN908947), UniProt P0DTC2).
T4 construct: source: FreeStyle293F, transfected, purified (Ni-NTA, SEC)
Nature of the experiment: BLI. Particulars: both partners purified.

In experiment [5] the target is T5, HCoV-OC43 spike protein, full-length, expressed on the HEK293T cell surface (HCoV-OC43).
T5 construct: source: HEK293T, transfected (phCMV3), on the cell surface
Nature of the experiment: flow cytometry on cells. Particulars: one partner purified.

Experiment [6] has as its target T6, SARS-CoV-2 spike protein, full-length, expressed on the HEK293T cell surface (SARS-CoV-2, Wuhan-Hu-1 (MN908947), UniProt P0DTC2).
T6 construct: source: HEK293T, transfected (phCMV3), on the cell surface
Nature of the experiment: flow cytometry on cells. Particulars: one partner purified. For orientation: In flow cytometry, cells or beads pass a laser one at a time.

Experiment [7] has as its target T7, HCoV-HKU1 spike protein, full-length, expressed on the HEK293T cell surface (HCoV-HKU1, isolate N1 (YP_173238.1), UniProt Q5MQD0).
T7 construct: also called HKU1-CoV S; source: HEK293T, transfected (phCMV3), on the cell surface
Nature of the experiment: flow cytometry on cells. Particulars: one partner purified.

In experiment [8] the target is T8, HCoV-NL63 spike protein, full-length, expressed on the HEK293T cell surface (HCoV-NL63 (YP_003767.1), UniProt Q6Q1S2).
T8 construct: source: HEK293T, transfected (phCMV3), on the cell surface
Nature of the experiment: flow cytometry on cells. As to conditions: one partner purified.

Experiment [9] has as its target T9, HCoV-229E spike protein, full-length, expressed on the HEK293T cell surface (HCoV-229E (NP_073551.1), UniProt P15423).
T9 construct: source: HEK293T, transfected (phCMV3), on the cell surface
Nature of the experiment: flow cytometry on cells. As to conditions: one partner purified.

The target of experiment [10] is T10, HCoV-HKU1 soluble S ectodomain protein (residue 1-1295), prefusion-stabilized, with T4 fibritin trimerization … (HCoV-HKU1, isolate N1 (YP_173238.1), UniProt Q5MQD0, A1071/L1072 replaced by proline residues).
T10 construct: also called HCoV-HKU1 S-protein; HKU1-CoV S protein; source: FreeStyle293F, transfected, purified (Ni-NTA or GNL column, SEC)
Kind of experiment: BLI. As to conditions: both partners purified.

From publication PMC8134462, “Cross-reactive serum and memory B-cell responses to spike protein in SARS-CoV-2 and endemic coronavirus infection” (Nature Communications, 2021) come the findings set out here.

B1: mAb CC9.1 (antibody, V domains shown)
VH: EVQLVESGGGLVQPGRSLRLSCVAPGFTLGGYGMHWVRQAPGKGLEWVGLISYDGSVQKYGSSVKGRFTISKDNSKNTLYLEMNSLRADDTAVYFCVKGASLGDNWGQGTLVTVSS
VL: EIVMTQSPLSLPVTLGQPASISCRSSQSLVYSDGDTYMSWFHQRPGQSPRRLIYKVSNRDSGVPDRFSGSGSGTDFTLKISRVEAEDVGVYYCMQGTHWPYTFGPGTKVEIK
For B1, the binding result in [1] is “no binding”; in experiment [2], “no binding”; in [3] it was “no binding”; in experiment [4], “no binding”; in [5], “binds”; in experiment [6] it was “binds”. For the same molecule, the figures for the binding result in [7], in experiment [8] and in experiment [9] were “binds”, “no binding” and “no binding”, respectively.

B2: Fab CC9.2 (Fab, V domains shown)
VH: EVQLVESGGGLVQPGRSLRLSCVAPGFTLGGYGMHWVRQAPGKGLEWVGLISYDGSVQKYGSSVKGRFTISKDNSKNTLYLEMNSLRADDTAVYFCVKGASLGDNWGQGTLVTVSS
VL: EIVMTQSPLSLPVTLGQPASISCRSSQSLVYSDGDTYMSWFHQRPGQSPRRLIYKVSNRDFGVPDRFSGSGSGTDFTLKISRVEAEDVGVYYCMQGTHWPYTFGPGTKVEIK
notes: also called CC9.2 Fab
For the molecule B2, the binding result in [10] is “binds”.

B3: mAb CC9.2 (IgG) (antibody, V domains shown)
VH: EVQLVESGGGLVQPGRSLRLSCVAPGFTLGGYGMHWVRQAPGKGLEWVGLISYDGSVQKYGSSVKGRFTISKDNSKNTLYLEMNSLRADDTAVYFCVKGASLGDNWGQGTLVTVSS
VL: EIVMTQSPLSLPVTLGQPASISCRSSQSLVYSDGDTYMSWFHQRPGQSPRRLIYKVSNRDFGVPDRFSGSGSGTDFTLKISRVEAEDVGVYYCMQGTHWPYTFGPGTKVEIK
Consider B3, for which the binding result is “binds” in [10]; “no binding” in [1]; “no binding” in experiment [2]; “no binding” in [3]; “no binding” in experiment [4]; “binds” in [5]. Besides, the binding result in experiment [6] is listed as “binds”; in experiment [7], “binds”; in experiment [8] it was “no binding”; in experiment [9], “no binding”.

B4: second SARS-CoV-2/HCoV-HKU1 cross-reactive mAb from the CC40 donor (its name is not printed in the text) (antibody, V domains shown)
VH: EVQLVESGGGVVQPGRSLRLSCVASGFTFSNYGMHWVRQAPGKGLEWVAVMSYDGSVTYYGDSVRGRFTISRDNSKNTLYLQMSSLRTDDTGVYYCAKGQPLDDIWGLGTLVTVSS
VL: EIVMTQSPLSLPVSLGQSASISCRSSQSLVHTDGITYLSWFQQRPGQSPRRLLYKVSNRDSGVPDRFSGSGSGTDFTLKISRVEAEDVGVYYCLQGTYWPWTFGQGTKVEIK
notes: also called one of the two cross-reactive mAbs from the CC40 donor
Regarding B4, the binding result in [1] was “no binding”; in [2] it was “no binding”; in experiment [3], “no binding”; in [4], “no binding”; in experiment [5], “binds”; in experiment [6], “binds”. For the same molecule, the binding result in [7] was “binds”; in experiment [8], “no binding”; in [9], “no binding”.
